Laboratory results from publication PMC4498709.

Assays:
[1] = target: Chaetomium thermophilum Mex67 LRR-NTF2L (ctMex67^LRR-NTF2L; residues 180-556) (Chaetomium thermophilum); experiment: SEC-MALS; ctMex67^LRR-NTF2L alone; single peak; dimer
[2] = system: ctMex67 deltaN (with Mtr2);ctMtr2 (Chaetomium thermophilum;Chaetomium thermophilum); experiment: fluorescence anisotropy; conditions: 20 mM Tris-HCl pH 8.0, 50 mM NaCl, 10 nM DY-547-labelled RNA, serially diluted protein, temperature not stated
[3] = system: ctMex67 LRR-NTF2L (RRM deletion);ctMtr2 (Chaetomium thermophilum;Chaetomium thermophilum); experiment: fluorescence anisotropy; conditions: 20 mM Tris-HCl pH 8.0, 50 mM NaCl, 10 nM DY-547-labelled RNA, serially diluted protein; temperature not stated
[4] = system: ctMex67 RRM-LRR (NTF2L-Mtr2 deletion) (Chaetomium thermophilum); experiment: fluorescence anisotropy; conditions: 20 mM Tris-HCl pH 8.0, 50 mM NaCl, 10 nM DY-547-labelled RNA, serially diluted protein; temperature not stated
[5] = system: ctMex67 deltaUBA (deltaN deltaUBA);ctMtr2 (Chaetomium thermophilum;Chaetomium thermophilum); experiment: fluorescence anisotropy; conditions: 20 mM Tris-HCl pH 8.0, 50 mM NaCl, 10 nM DY-547-labelled RNA, serially diluted protein; temperature not stated

## Chaetomium thermophilum Mex67 LRR-NTF2L (ctMex67^LRR-NTF2L; residues 180-556) (domain or fragment)
[1]
  stoichiometry N: 2

## GGGGGGGGGGGGGGG [polyG15]
[2]
  Kd: 310 nM

## UUUUUUUUUUUUUUU [polyU15]
[2]; printed '930 and 6.0 µM, respectively', 930 read as nM
  Kd: 930 nM

## AAAAAAAAAAAAAAA [polyA15]
[3]
  Kd: 6800 nM
[4]
  Kd: 5500 nM
[2]
  Kd: 350 nM
[5]
  Kd: 370 nM

## CCCCCCCCCCCCCCC [polyC15]
[2]
  Kd: 6000 nM
